Results as given in patent EP3741773A1 (City of Hope, dated 2020).

Molecular target: T1, meditope-enabled trastuzumab
T1 construct: after it there are no differences from the human heavy chain of trastuzumab; Full IgG was expressed; Labelled with Alexa dyes in FACS; also called TM; trastuzumab memab
Test: SPR

T1 sequence (heavy, as listed by the source, chain 1 of 2): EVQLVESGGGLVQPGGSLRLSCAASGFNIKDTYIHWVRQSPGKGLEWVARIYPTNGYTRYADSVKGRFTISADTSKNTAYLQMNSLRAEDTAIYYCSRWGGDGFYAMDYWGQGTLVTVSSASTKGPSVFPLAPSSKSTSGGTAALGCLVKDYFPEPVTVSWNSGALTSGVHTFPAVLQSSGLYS
T1 sequence (light, as listed by the source, chain 2 of 2): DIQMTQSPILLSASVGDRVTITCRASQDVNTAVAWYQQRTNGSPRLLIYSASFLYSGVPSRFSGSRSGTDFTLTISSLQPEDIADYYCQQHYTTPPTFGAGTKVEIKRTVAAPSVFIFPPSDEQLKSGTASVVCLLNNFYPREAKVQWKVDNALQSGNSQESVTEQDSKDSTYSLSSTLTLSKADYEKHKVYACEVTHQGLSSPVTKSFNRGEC

B1: Protein L (other)
chain: SEVTIKVNLIFADGKIQTAEFKGTFEEATAEAYRYAALLAKVNGEYTADLEDGGNHMNIKFAG
notes: also called Protein L (only); PpL
Work on B1 yielded a Kd of roughly 500 nM.
